Results on one molecule are retold here after patent US20250197490A1 (HBM ALPHA THERAPEUTICS, published 2025).

Test [1] has as its target T1, corticotropin-releasing hormone (CRH) peptide (human and mouse, UniProt P01143 145-185 (rat entry), not fully specified).
T1 peptide: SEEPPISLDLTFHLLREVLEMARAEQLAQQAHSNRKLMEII
The experiment in a line: cell-based or functional assay.

For test [2], the target named is T2, biotinylated CRH (human and mouse, UniProt P01143 145-185 (rat entry), not fully specified; biotin; which end is not stated for the result (NT-biotin and CT-biotin forms were used)).
T2 construct: also called biotin-CRH; CRH (NT biotin)
T2 peptide: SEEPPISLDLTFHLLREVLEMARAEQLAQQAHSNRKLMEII
In words: ELISA, CRH (NT biotin). The method, boiled down:
(§1)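 Steps: coat with streptavidin 2 μg/ml overnight at 4° C; wash; add HRP-conjugated goat anti-human IgG (H+L), 37° C for 1 hour; develop with TMB at room temperature 15 minutes; stop and measure OD at 450 nm.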
(In general: ELISA stands for enzyme-linked immunosorbent assay.)

Test [3] addresses T2, biotinylated CRH. In words: ELISA, CRH (CT biotin). The method, boiled down: as §1
Test [4] addresses T3, N-Terminal CRH peptide (N-terminal region plus central region, CT biotin) (human and mouse, C-terminal K-Biotin).
T3 construct: also called N-Ter-CRH
T3 peptide: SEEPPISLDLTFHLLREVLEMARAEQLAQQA
The experiment in a line: ELISA, N-Ter-CRH (CT-biotin) on streptavidin. Put shortly: as §1

Test [5] concerns the target T4, human UCN2 peptide, biotinylated (human, UniProt Q96RP3 72-109, limits assumed, biotin at N- or C-terminus).
T4 construct: also called hUCN2 (NT Biotin); hUCN2 (CT Biotin)
T4 peptide (looked up): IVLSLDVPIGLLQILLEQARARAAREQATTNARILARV
The experiment in a line: ELISA, hUCN2 (NT biotin) and (CT biotin).

The target in test [6] is T5, human UCN3 peptide, biotinylated (human, UniProt Q969E3 120-157, biotin at N- or C-terminus).
T5 construct: also called hUCN3 (NT Biotin); hUCN3 (CT Biotin)
T5 peptide (looked up): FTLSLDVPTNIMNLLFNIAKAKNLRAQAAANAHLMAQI
In words: ELISA, hUCN3 (NT biotin) and (CT biotin).

For test [7], the target named is T6, human UCN1 peptide, biotinylated (human, UniProt P55089 83-122, biotin at N- or C-terminus).
T6 construct: also called hUCN1 (NT Biotin); hUCN1 (CT Biotin)
T6 peptide (looked up): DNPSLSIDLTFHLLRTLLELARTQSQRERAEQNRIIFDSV
The experiment in a line: ELISA, hUCN1 (NT biotin) and (CT biotin). How it is done: Streptavidin (Thermo, Cat: 21125) was diluted in PBS with a concentration of 2 μg/mL. 100 μL of diluted streptavidin was added per well to ELISA microplates, and the plates were incubated overnight at 4° C. Plates were blocked with ELISA blocking solution (containing 2% w/v BSA, 0.05% (v/v) Tween-20, pH 7.4 PBS buffer) at 37° C. for 1 hour, and then incubated with either 1 μg/mL hUCN1 (NT Biotin), hUCN1 (CT Biotin), hUCN2 (NT Biotin), hUCN2 (CT Biotin), hUCN3 (NT Biotin), or hUCN3 (CT Biotin) for 1 hour at 37° C. […] Plates were subsequently washed and incubated with HRP-conjugated goat anti-human IgG (H+L) antibody (Jackson, Cat: 109-035-088) at 37° C. for 1 hour. 100 μl of TMB Substrate (Biopanda, Cat: TMB-S-003) was added, and the plates were incubated at room temperature for 15 minutes. 100 μL of ELISA stopping solution (Solarbio, Cat #: C1058) was then added to terminate the reaction, and the OD450 nm was determined by an ELISA plate reader (Molecular Devices, Spectra max 384 plus).

Test [8] concerns the target T7, CRH (Central Region, NT Biotin) (N-terminal Biotin-K; C-terminal NH2).
T7 construct: also called Central CRH
T7 peptide: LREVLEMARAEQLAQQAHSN
The experiment in a line: ELISA, CRH central region peptide (NT biotin). The method, boiled down: as §1

The target in test [9] is T8, CRH (Central Region, CT Biotin) (C-terminal K-Biotin).
T8 construct: also called Central CRH
T8 peptide: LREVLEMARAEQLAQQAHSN
In words: ELISA, CRH central region peptide (CT biotin). The method, boiled down:
as §1

Test [10] addresses T9, CRH (C-Terminal Region, NT Biotin) (N-terminal Biotin-K; C-terminal NH2).
T9 construct: central region plus C-terminal region of CRH; also called C-Terminal CRH; C-Ter-CRH
T9 peptide: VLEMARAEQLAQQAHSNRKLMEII
In words: ELISA, CRH C-terminal region peptide (NT biotin). Put shortly:
as §1

B1: PR302334-26 (antibody, human IgG1, kappa, V domains shown)
VH: EVQLVESGGGLVQPGGSLRLSCAASGFTFSTYAMSWVRQAPGKGLEWVASIRSGGTTYYPDSVKGRFTISRDNSKNSLYLQMNSLRAEDTAVYYCTRGIDWGQGTTVTVSS
VL: DIVMTQSPDSLAVSLGERATINCKASQSVNNDVAWYQQKPGQPPRLLIYYASNRYTGVPDRFSGSGSGTDFTLTISSLQAEDLAVYFCQQDYSSWTFGGGTKVEIKR
Broadly, the EC50 (read off the curve) is the concentration giving half of the maximal effect. High values mean weaker potency, low ones greater potency. In general, EC50 refers to the concentration needed to bring the measured effect to its halfway point. In the case of B1, in test [1], the “hCRHR1-Luc 0.5 nM CRH IC50” value came out at 1.1 nM. Further, the “EC50 (read off the curve)” value with biotinylated CRH [2] and with biotinylated CRH [3] was approximately 0.03 nM throughout. Moreover, the concentration for a half-maximal effect (EC50) in test [4] was found to be 0.029 nM. Also, the binding result in test [5], in test [6], in [7], in [8], in test [9] and in [10] was “no binding (tested: 100 nM)” throughout.
